# T1: recombinant FLAG-huDLL3 (human DLL3 extracellular domain with FLAG tag at the N-terminus) (human, UniProt Q9NYJ7 27-492)
# T1 construct: Bought (Adipogen, Cat AG40B-0151); the whole entry is named here; also called recombinant DLL3 protein; recombinant human FLAG-huDLL3; not shown: N-terminal FLAG tag
# T1 sequence: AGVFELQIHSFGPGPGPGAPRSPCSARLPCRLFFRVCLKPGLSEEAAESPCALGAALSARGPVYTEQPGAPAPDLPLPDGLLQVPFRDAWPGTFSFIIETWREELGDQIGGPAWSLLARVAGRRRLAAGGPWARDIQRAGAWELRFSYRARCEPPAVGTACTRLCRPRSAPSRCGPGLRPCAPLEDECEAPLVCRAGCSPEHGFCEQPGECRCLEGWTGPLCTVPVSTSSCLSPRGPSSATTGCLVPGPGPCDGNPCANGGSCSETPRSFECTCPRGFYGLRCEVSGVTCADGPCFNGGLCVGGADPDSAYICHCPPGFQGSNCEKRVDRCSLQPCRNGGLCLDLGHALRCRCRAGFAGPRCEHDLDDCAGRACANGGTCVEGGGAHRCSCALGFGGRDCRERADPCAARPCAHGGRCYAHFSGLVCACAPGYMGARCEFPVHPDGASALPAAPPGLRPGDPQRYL
# Assays:
# [1] = target: T1, recombinant FLAG-huDLL3 (human DLL3 …); assay: ELISA, FLAG-huDLL3 coated on plate
# [2] = target: T2, human CD47 extracellular domain (CD47(ECD)) (human, UniProt Q08722 19-139); assay: ELISA, human CD47(ECD) coated on plate
# T2 construct: extracellular domain; Bought protein; also called human CD47(ECD); immobilized CD47
# T2 sequence (Q08722 19-139 limits assumed): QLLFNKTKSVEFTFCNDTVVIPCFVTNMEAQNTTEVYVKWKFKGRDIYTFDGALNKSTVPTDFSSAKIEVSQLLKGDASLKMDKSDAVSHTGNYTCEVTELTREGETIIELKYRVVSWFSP
# Method: The purified mAbs were analyzed for their ability to bind to the extracellular domain of CD47 (CD47(ECD)) in an ELISA assay as follows: human CD47(ECD) (AcroBio, Cat #: CD7-HA2E9-50 μg) in carbonate coating buffer (50 μL/well at 1 μg/mL) was coated on a 96-well ELISA plate for 1 hour at room temperature. After washing, the plate was blocked in 5% BSA in TBST for 1 hour at room temperature and washed again. In each well of the plate, an antibody at 50 μL/well at various concentrations was added and incubated for 1 hour at room temperature. The plate was washed and the binding of the antibody to the immobilized CD47 was detected by incubating with anti-human IgG conjugated to horseradish peroxidase (hIgG-HRP) (ThermoFisher Scientific, Cat #: H10007) for 60 minutes at room temperature. Then after washing, the ELISA was developed using One-step Detection Solution (ThermoFisher Scientific, Cat #: 34028) and measured as the absorbance at 450 nm.
# [3] = target: T2, human CD47 extracellular domain …; assay: ELISA, CD47(ECD) coated on regular plate (FIG. 5)
Binder,EC50 [2] [nM],other results
"humanized anti-DLL3 mAb H1L1 (antibody, V domains shown, Humanized 13P9A) VH: EVRLSQSGGQMKKPGESMRLSCRASGYTFTSYVMHWVRQAPGRRPEWIGYINPYNDATKYARKFQGRATLTSDKYSDTAFLELRSLTSDDTAVYYCARGGYDYDGDYWGRGAPVTVSS VL: EIVMTQSPGTLSLSPGERATLSCHASQNINVWLSWYQQKPGQAPRLLIYKASNLHTGIPDRFSGSGSGTDFTLTISRLEPEDFAVYYCQQGQSYPFTFGQGTKVEIK",,EC50 [1]: 0.13 nM
"humanized anti-CD47 mAb KH1L1 (antibody, V domains shown, Humanized VH of anti-CD47 mAb 17C6A with humanized VL of anti-DLL3 13P9A) VH: QVQLVQSGAEVKKPGSSVKVSCKASGYTFTSYWMHWVRQAPGQGLEWIGNIDPSDSETHYAQKFQGRATLTVDKSTSTAYMELSSLRSEDTAVYYCAGTDLAYWGQGTLVTVSS VL: EIVMTQSPGTLSLSPGERATLSCHASQNINVWLSWYQQKPGQAPRLLIYKASNLHTGIPDRFSGSGSGTDFTLTISRLEPEDFAVYYCQQGQSYPFTFGQGTKVEIK",1.17,
"anti-CD47/DLL3 bispecific antibody BA1(C) (bispecific antibody, BA1 further modified by S354C on the anti-CD47 HC (KH2) and Y349C on the anti-DLL3 HC (H1); not shown: IgG1 heavy chain constant region, knob with added cysteine; IgG1 heavy chain constant region, hole with added cysteine; kappa light chain constant region) heavy 1: QVQLVQSGAEVKKPGASVKVSCKASGYTFTSYWMHWVRQAPGQGLEWIGNIDPSDSETHYAQKFQGRVTLTVDKSTSTVYMELSSLRSEDTAVYYCAGTDLAYWGQGTLVTVSS heavy 2: EVRLSQSGGQMKKPGESMRLSCRASGYTFTSYVMHWVRQAPGRRPEWIGYINPYNDATKYARKFQGRATLTSDKYSDTAFLELRSLTSDDTAVYYCARGGYDYDGDYWGRGAPVTVSS light: EIVLTQSPGTLSLSPGERATLSCHASQNINVWLSWYQQKPGQAPRLLIYKASNLHTGIPDRFSGSGSGTDFTLTISRLEPEDFAVYYCQQGQSYPFTFGQGTKVEIK",,binding result [3]: binds
"anti-CD47/DLL3 bispecific antibody BA4(C) (bispecific antibody, Variable regions of BA1 on the IgG4 framework with the same cysteine mutations as BA1(C); not shown: IgG4 heavy chain constant region (""IgG4 frame work"") with the same cysteine mutation as BA1(C); knob mutation not explic; hole mutations not expli; kappa light chain constant region) heavy 1: QVQLVQSGAEVKKPGASVKVSCKASGYTFTSYWMHWVRQAPGQGLEWIGNIDPSDSETHYAQKFQGRVTLTVDKSTSTVYMELSSLRSEDTAVYYCAGTDLAYWGQGTLVTVSS heavy 2: EVRLSQSGGQMKKPGESMRLSCRASGYTFTSYVMHWVRQAPGRRPEWIGYINPYNDATKYARKFQGRATLTSDKYSDTAFLELRSLTSDDTAVYYCARGGYDYDGDYWGRGAPVTVSS light: EIVLTQSPGTLSLSPGERATLSCHASQNINVWLSWYQQKPGQAPRLLIYKASNLHTGIPDRFSGSGSGTDFTLTISRLEPEDFAVYYCQQGQSYPFTFGQGTKVEIK",,binding result [3]: binds
"humanized anti-CD47 mAb KH3L1 (antibody, V domains shown) VH: EVRLSQSGGQMKKPGESMRLSCRASGYTFTSYWMHWVRQAPGRRLEWIGNIDPSDSETHYARKFQGRATLTVDKYSDTAFLELRSLTSDDTAVYYCAGTDLAYWGRGAPVTVSS VL: EIVMTQSPGTLSLSPGERATLSCHASQNINVWLSWYQQKPGQAPRLLIYKASNLHTGIPDRFSGSGSGTDFTLTISRLEPEDFAVYYCQQGQSYPFTFGQGTKVEIK",0.09,
"anti-CD47/DLL3 bispecific antibody BA1 (KH2/H1/L2) (bispecific antibody, Common light chain L2; anti-CD47 arm KH2 (knob), anti-DLL3 arm H1 (hole); not shown: IgG1 heavy chain constant region, knob; IgG1 heavy chain constant region, hole; kappa light chain constant region) heavy 1: QVQLVQSGAEVKKPGASVKVSCKASGYTFTSYWMHWVRQAPGQGLEWIGNIDPSDSETHYAQKFQGRVTLTVDKSTSTVYMELSSLRSEDTAVYYCAGTDLAYWGQGTLVTVSS heavy 2: EVRLSQSGGQMKKPGESMRLSCRASGYTFTSYVMHWVRQAPGRRPEWIGYINPYNDATKYARKFQGRATLTSDKYSDTAFLELRSLTSDDTAVYYCARGGYDYDGDYWGRGAPVTVSS light: EIVLTQSPGTLSLSPGERATLSCHASQNINVWLSWYQQKPGQAPRLLIYKASNLHTGIPDRFSGSGSGTDFTLTISRLEPEDFAVYYCQQGQSYPFTFGQGTKVEIK",,binding result [3]: binds
"humanized anti-CD47 mAb KH2L2 (antibody, V domains shown, also called anti-CD47 parental mAb) VH: QVQLVQSGAEVKKPGASVKVSCKASGYTFTSYWMHWVRQAPGQGLEWIGNIDPSDSETHYAQKFQGRVTLTVDKSTSTVYMELSSLRSEDTAVYYCAGTDLAYWGQGTLVTVSS VL: EIVLTQSPGTLSLSPGERATLSCHASQNINVWLSWYQQKPGQAPRLLIYKASNLHTGIPDRFSGSGSGTDFTLTISRLEPEDFAVYYCQQGQSYPFTFGQGTKVEIK",0.18,
"humanized anti-DLL3 mAb H1L2 (antibody, V domains shown, also called anti-DLL3 parental mAb) VH: EVRLSQSGGQMKKPGESMRLSCRASGYTFTSYVMHWVRQAPGRRPEWIGYINPYNDATKYARKFQGRATLTSDKYSDTAFLELRSLTSDDTAVYYCARGGYDYDGDYWGRGAPVTVSS VL: EIVLTQSPGTLSLSPGERATLSCHASQNINVWLSWYQQKPGQAPRLLIYKASNLHTGIPDRFSGSGSGTDFTLTISRLEPEDFAVYYCQQGQSYPFTFGQGTKVEIK",,EC50 [1]: 0.12 nM
"humanized anti-CD47 mAb KH1L2 (antibody, V domains shown) VH: QVQLVQSGAEVKKPGSSVKVSCKASGYTFTSYWMHWVRQAPGQGLEWIGNIDPSDSETHYAQKFQGRATLTVDKSTSTAYMELSSLRSEDTAVYYCAGTDLAYWGQGTLVTVSS VL: EIVLTQSPGTLSLSPGERATLSCHASQNINVWLSWYQQKPGQAPRLLIYKASNLHTGIPDRFSGSGSGTDFTLTISRLEPEDFAVYYCQQGQSYPFTFGQGTKVEIK",0.64,
"humanized anti-CD47 mAb KH1L3 (antibody, V domains shown) VH: QVQLVQSGAEVKKPGSSVKVSCKASGYTFTSYWMHWVRQAPGQGLEWIGNIDPSDSETHYAQKFQGRATLTVDKSTSTAYMELSSLRSEDTAVYYCAGTDLAYWGQGTLVTVSS VL: EIVMTQSPATLSLSPGETAIISCHASQNINVWLSWYQQRPGQAPRLLIYKASNLHTGIPDRFSGSGWGTDFNLSISNLESGDFGVYYCQQGQSYPFTFGQGTKVEIK",0.76,
"humanized anti-DLL3 mAb H1L3 (antibody, V domains shown) VH: EVRLSQSGGQMKKPGESMRLSCRASGYTFTSYVMHWVRQAPGRRPEWIGYINPYNDATKYARKFQGRATLTSDKYSDTAFLELRSLTSDDTAVYYCARGGYDYDGDYWGRGAPVTVSS VL: EIVMTQSPATLSLSPGETAIISCHASQNINVWLSWYQQRPGQAPRLLIYKASNLHTGIPDRFSGSGWGTDFNLSISNLESGDFGVYYCQQGQSYPFTFGQGTKVEIK",,EC50 [1]: 0.15 nM
"humanized anti-CD47 mAb KH2L1 (antibody, V domains shown) VH: QVQLVQSGAEVKKPGASVKVSCKASGYTFTSYWMHWVRQAPGQGLEWIGNIDPSDSETHYAQKFQGRVTLTVDKSTSTVYMELSSLRSEDTAVYYCAGTDLAYWGQGTLVTVSS VL: EIVMTQSPGTLSLSPGERATLSCHASQNINVWLSWYQQKPGQAPRLLIYKASNLHTGIPDRFSGSGSGTDFTLTISRLEPEDFAVYYCQQGQSYPFTFGQGTKVEIK",0.19,

# More lines, main results first:
EC50 [2] [nM],Binder,other results
0.08,"humanized anti-CD47 mAb KH3L2 (antibody, V domains shown) VH: EVRLSQSGGQMKKPGESMRLSCRASGYTFTSYWMHWVRQAPGRRLEWIGNIDPSDSETHYARKFQGRATLTVDKYSDTAFLELRSLTSDDTAVYYCAGTDLAYWGRGAPVTVSS VL: EIVLTQSPGTLSLSPGERATLSCHASQNINVWLSWYQQKPGQAPRLLIYKASNLHTGIPDRFSGSGSGTDFTLTISRLEPEDFAVYYCQQGQSYPFTFGQGTKVEIK",
0.18,"humanized anti-CD47 mAb KH3L3 (antibody, V domains shown) VH: EVRLSQSGGQMKKPGESMRLSCRASGYTFTSYWMHWVRQAPGRRLEWIGNIDPSDSETHYARKFQGRATLTVDKYSDTAFLELRSLTSDDTAVYYCAGTDLAYWGRGAPVTVSS VL: EIVMTQSPATLSLSPGETAIISCHASQNINVWLSWYQQRPGQAPRLLIYKASNLHTGIPDRFSGSGWGTDFNLSISNLESGDFGVYYCQQGQSYPFTFGQGTKVEIK",
0.08,"humanized anti-CD47 mAb KH3L4 (antibody, V domains shown) VH: EVRLSQSGGQMKKPGESMRLSCRASGYTFTSYWMHWVRQAPGRRLEWIGNIDPSDSETHYARKFQGRATLTVDKYSDTAFLELRSLTSDDTAVYYCAGTDLAYWGRGAPVTVSS VL: EIVMTQSPATLSLSPGETAIISCHASQNINVWLSWYQQRPGQAPRLLIYKASNLHTGIPDRFSGSGWGTDFNLSISNLESGDFGVYYCQQGQSYPWTFGQGTKVEIK",
0.09,"humanized anti-CD47 mAb KH2L3 (antibody, V domains shown) VH: QVQLVQSGAEVKKPGASVKVSCKASGYTFTSYWMHWVRQAPGQGLEWIGNIDPSDSETHYAQKFQGRVTLTVDKSTSTVYMELSSLRSEDTAVYYCAGTDLAYWGQGTLVTVSS VL: EIVMTQSPATLSLSPGETAIISCHASQNINVWLSWYQQRPGQAPRLLIYKASNLHTGIPDRFSGSGWGTDFNLSISNLESGDFGVYYCQQGQSYPFTFGQGTKVEIK",
